Measurements taken from patent US20240294670A1 (University of Texas, published 2024).

Assays:
recombinant human CHI3L1 [1] = molecular target: T1, recombinant human CHI3L1 (human, UniProt P36222 22-383); assay: ELISA: human CHI3L1 coated on the plate, B cell culture supernatant 100 ul/well, A450
T1 construct: His-tagged recombinant protein (Sino Biological 11227-H08H, or in-house HEK293 protein with 6xHIS-tag and avi-tag); also called hCHI3L1; hChi3l1
Experimental: (§1) FIG. 7. The ELISA binding of the supernatant antibody to the human CHI3L1. (hCHI3L1), and mouse CHI3L1 (mCHI3L1). The CHI3L1 protein was coated on maxi-sorp 96-well plates, cell culture supernatant (100 ul/well) was used for binding on the antigen coated plate. Binding signals (A450 nm) are shown in Y-axis and CHI3L1 mAbs are shown on X-axis.
(§2) Binding affinity of anti-CHI3L1 monoclonal antibodies to the CHI3L1 protein using ELISA method. Binding of CHI3L1 by monoclonal antibodies was first screened by ELISA using supernatants collected from the B cell cultures and cross reactivity to mouse CHI3L1 protein was determined (FIG. 7).

recombinant mouse CHI3L1 [2] = molecular target: T2, recombinant mouse CHI3L1 (mouse, UniProt Q61362 30-389, limits assumed); assay: ELISA: mouse CHI3L1 coated on the plate, B cell culture supernatant 100 ul/well, A450
T2 construct: His-tagged; also called mCHI3L1; mChi3l1
T2 sequence (Q61362 30-389 limits assumed): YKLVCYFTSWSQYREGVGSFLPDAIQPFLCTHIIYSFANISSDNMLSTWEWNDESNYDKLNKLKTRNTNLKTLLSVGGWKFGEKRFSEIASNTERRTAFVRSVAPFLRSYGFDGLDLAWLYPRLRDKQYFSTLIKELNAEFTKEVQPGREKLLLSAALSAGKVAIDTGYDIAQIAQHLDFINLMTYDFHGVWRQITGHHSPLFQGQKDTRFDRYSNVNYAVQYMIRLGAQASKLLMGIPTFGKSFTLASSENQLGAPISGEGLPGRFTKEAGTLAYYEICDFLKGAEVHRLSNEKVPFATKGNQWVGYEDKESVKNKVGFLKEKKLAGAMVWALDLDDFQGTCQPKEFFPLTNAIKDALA
Experimental: as §1, §2

recombinant human CHI3L1 [3] = molecular target: T1, recombinant human CHI3L1; assay: BLI (Octet), mAb on protein A sensor, CHI3L1 in solution, 1:1 fit
Experimental: (§3) FIG. 8. Kinetic binding sensorgrams collected on Octet instrument for determination of kon and koff rates for each CHI3L1 antibody.
(§4) Binding affinity of anti-CHI3L1 monoclonal antibodies determined using Bio-layer interferometry (BLI), a sensor-based Octet instrument. […] Following by kinetics buffer washing to baseline, the loaded biosensors were exposed to a series of recombinant CHI3L1 protein at 0.1-200 nM range and background subtraction was used to correct for any background from sensor drifting. All experiments were performed with shaking at 1,000 rpm. Background wavelength shifts were measured from reference biosensors that were loaded with antibody and followed with buffer without antigen. ForteBio's data analysis software was used to fit the data to a 1:1 binding model to extract an association rate and dissociation rate. The KD was calculated using the ratio of koff/kon and the estimated values of KD for CHI3L1 mAbs in Table C.

recombinant mouse CHI3L1 [4] = molecular target: T2, recombinant mouse CHI3L1; assay: as above
Experimental: as §3, §4

recombinant human CHI3L1 [5] = molecular target: T1, recombinant human CHI3L1; assay: Octet BLI
recombinant mouse CHI3L1 [6] = molecular target: T2, recombinant mouse CHI3L1; assay: Octet BLI

T1 sequence (P36222 22-383 limits assumed): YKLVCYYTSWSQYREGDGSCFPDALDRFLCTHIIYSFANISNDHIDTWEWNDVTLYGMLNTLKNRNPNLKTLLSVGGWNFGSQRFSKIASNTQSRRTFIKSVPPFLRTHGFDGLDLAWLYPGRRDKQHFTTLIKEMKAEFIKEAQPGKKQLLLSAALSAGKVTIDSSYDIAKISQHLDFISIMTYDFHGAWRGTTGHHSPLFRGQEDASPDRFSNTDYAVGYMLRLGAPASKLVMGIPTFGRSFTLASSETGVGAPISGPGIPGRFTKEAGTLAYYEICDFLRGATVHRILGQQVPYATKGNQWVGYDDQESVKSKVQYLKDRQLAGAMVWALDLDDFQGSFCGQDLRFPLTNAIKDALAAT

B1: anti-CHI3L1 monoclonal antibody C28 (antibody, V domains shown)
VH: QQLKESGGDLVKPGASLTLTCTASGFSFSSGYYMCWVRQAPGKGLEWIACIGASSGLTNYASWAKGRFTISKTSSTTVTLRMTSLTAADTATYFCARVYLGGADYEQFNLWGPGTLVTVSS
VL: AQVLTQTPSSASEPVGGTVTIKCQAGESVSSRVAWYQQKPGQPPKLLIFDASALASGVSSRFTGSGSGTQFTLTISDLECADAATYYCQNYYGISGVAFGGGTEVVVK
notes: Rabbit mAb
- binding result (recombinant human CHI3L1 [1]): binds
- binding result (recombinant mouse CHI3L1 [2]): no binding

B2: anti-CHI3L1 monoclonal antibody C53 (antibody, V domains shown)
VH: QEQLVESGGDLVKPGASLTLTCTASGFSFSSSHYMCWVRQAPGKGLEWIACIYLGDDSTYYASWVNGRFSISKTSSTTVTLQMTSLTAADTATYFCARHGYNLAIHNYIIWGPGTLVTVSS
VL: DVVMTQTPSSVEAGVGGTVTIKCQASESSSRHLSWYQQKPGQRPKLLIYWASTLASGVPSRFQGSGSGTEFTLTISDLECADAATYYCQSYYGLSNNGWRYAFGGGTEVVVK
notes: Rabbit mAb from single B cells, expressed as full length IgG in HEK293
- Kd (recombinant human CHI3L1 [3]): < 0.001 nM
- koff (recombinant human CHI3L1 [3]): < 1e-07 s⁻¹
- kon (recombinant human CHI3L1 [3]): 137000 M⁻¹ s⁻¹
- Kd (recombinant mouse CHI3L1 [4]): 3.54 nM
- koff (recombinant mouse CHI3L1 [4]): 0.000273 s⁻¹
- kon (recombinant mouse CHI3L1 [4]): 77300 M⁻¹ s⁻¹

B3: anti-CHI3L1 monoclonal antibody C56 (antibody, V domains shown)
VH: QEQLVESGGDLVKPGASLTLTCTASGFSFSSSYWICWVRQAPGKGLELIACIYPSSSGSTDYASWAKGRFTISKTSSTTVTLQMTSLTAADTATYFCARDIPYNIHGYTTGFNLWGPGTLVTVSS
VL: ALVMTQTPASVEAAVGGTVTIKCQASQSIGSNLAWYQQKPGQPPKLLIYSASTLASGVSSRFKGSRSGTEFTLTISDLECADAATYYCQFTYYGSSDVDVFGGGTKVVVE
notes: as for B2
- Kd (recombinant human CHI3L1 [3]): < 0.001 nM
- koff (recombinant human CHI3L1 [3]): < 1e-07 s⁻¹
- kon (recombinant human CHI3L1 [3]): 189000 M⁻¹ s⁻¹
- Kd (recombinant mouse CHI3L1 [4]): 7.92 nM
- koff (recombinant mouse CHI3L1 [4]): 0.000592 s⁻¹
- kon (recombinant mouse CHI3L1 [4]): 74800 M⁻¹ s⁻¹

B4: anti-CHI3L1 monoclonal antibody C59 (antibody, V domains shown)
VH: QSVEESGGDLVKPGASLTLTCTASGFTISSDYYMCWVRQAPGKGLEWIGCIYIGSGTDTYYASWAKGRFTISKTSSTTVTLQMTSLTAADTATYFCARDKGWSNAWGFYFQLWGPGTLVTVSS
VL: DPVLTQTPASVEVPVGGTVTINCQASQSIGKYLNWYQQKPGQPPKLLIYSSSSLASGVSSRFKGSGFGTQFTLTISGVQCADAATYYCQQGYSYVDLENGFGGGTELEIL
notes: Rabbit mAb from single B cells, expressed as full length IgG in HEK293; also called clone 59; C59mAb
- Kd (recombinant human CHI3L1 [3]): 1.42 nM
- koff (recombinant human CHI3L1 [3]): 0.000235 s⁻¹
- kon (recombinant human CHI3L1 [3]): 166000 M⁻¹ s⁻¹
- Kd (recombinant mouse CHI3L1 [4]): 3.43 nM
- koff (recombinant mouse CHI3L1 [4]): 0.000402 s⁻¹
- kon (recombinant mouse CHI3L1 [4]): 117000 M⁻¹ s⁻¹

B5: humanized C7 antibody C7Hu (antibody, V domains shown)
VH: QVQLVESGGGVVQPGRSLRLSCAASGFTLTTYWVCWVRQAPGKGLEWVACIDAGSITYYTTWARGRFTISRDNSTNTLFLQMNSLRAEDTAVYYCARDAHYTYALVLWGRGTLVTVSS
VL: DIQMTQSPSSVSASVGDRVTIKCQASEDIESYLAWYQQKPGKAPKLLIYDASDLASGVPSRFSGSGSGTDFTLTISSLQPEDAATYYCQGYSYGSSYVGFGGGTKVEIK
notes: Humanized form of C7
- Kd (recombinant human CHI3L1 [5]): 0.88 nM
- koff (recombinant human CHI3L1 [5]): 0.000492 s⁻¹
- kon (recombinant human CHI3L1 [5]): 559000 M⁻¹ s⁻¹

B6: anti-CHI3L1 monoclonal antibody C29 (antibody, V domains shown)
VH: QEQLVESGGDLVKPEGSLTLTCTASGFSFSDNYWMCWVRQAPGKGLEWIGCIYIGFSGTTYYASWAKGRFTISKASSTTVTLQMTSLTGADTATYFCARGVFYVGSGYWYYLNLWGPGTLVTISS
VL: DVVMTQTPSSVSAAVGGTVTIKCQASQSIASYLAWYQQKPGQPPKLLIYRASTLASGVPSRFKGSGSGTEYTLTISDLECADAATYYCQTTYVGGSGNAFGGGTKVEIK
notes: Rabbit mAb
- binding result (recombinant human CHI3L1 [1]): binds
- binding result (recombinant mouse CHI3L1 [2]): no binding

B7: humanized C59 antibody C59Hu (antibody, V domains shown)
VH: EVQLVESGGGLVQPGGSLRLSCAASGFTISSDYYMCWVRQAPGKGLEWIGCIYIGSGTDTYYADSVKGRFTISKHNSKNTLYLQMTSLRAEDTAVYYCARDKGWSNAWGFYFQLWGQGTLVTVSS
VL: DIQMTQSPSSLSASVGDRVTITCQASQSIGKYLNWYQQKPGKAPKLLIYSSSSLASGVPSRFSGSGFGTDFTLTISSLQPEDFATYYCQQGYSYVDLENGFGGGTKVEIK
notes: Humanized form of C59
- Kd (recombinant human CHI3L1 [5]): 4.5 nM
- koff (recombinant human CHI3L1 [5]): 0.000635 s⁻¹
- kon (recombinant human CHI3L1 [5]): 141000 M⁻¹ s⁻¹
- Kd (recombinant mouse CHI3L1 [6]): 4.44 nM
- koff (recombinant mouse CHI3L1 [6]): 0.00095 s⁻¹
- kon (recombinant mouse CHI3L1 [6]): 214000 M⁻¹ s⁻¹
